Measured values reported in PMC8373667.

Biological target: JJS-A6/A11 VHH heterodimer, thioredoxin-fused (alpaca (Vicugna pacos))
Test: far-Western, overlay or dot blot

B1: recombinant Cp-P34 (natural protein)
chain: MSGVSRRAVITDPNGVYEGDVNEKGLKHGNGVYKVNTGDVYEGEYSNGLKNGYGVYTWANGDKFEGYYKDDIKWGHGIYRWSNGEVFEGEYVRGVKCGHGIYTWPNGDRFEGEYKDGVKEGFGVYKLATGRIYEGQYSRDMRNGQGTSRYTDGSVYTGEWFDGKEHGHGLLKFSDSSSYEGDFQNGAPNGQGKYTYSNGNYYVGGFKNGLTDGPGSLTFAEDNRVLKANWKDGQVDGDAAIIYPDGGKYTGEVVNGIRQGKGIMTESNGDIFDGEFFRDFRHGEGILTVNGKQKRVKYNMGKKVGLCSC
Q: How did the percent of VHH binding to the native target blocked by the recombinant protein turn out when B1 was run?
A: 95.2%
